Reference: publication PMC12484979 (Nature Communications, 2025)
Values belong to the molecule of their own block, whether it stands above or below them.

Assays:
Test in all cases: cryo-EM structure
CD20 = CD20 (UniProt P11836)
[1] = target: human β-tryptase, tetrameric (activated by enterokinase cleavage) (human) (UniProt Q15661)
cryo-EM structure = target: the molecule itself

stoichiometry N (Fab per CD20 dimer) (CD20): 2
Molecule: Rituximab Fab, wild type (human-mouse chimeric)

stoichiometry N [1]: 4
Molecule: human β-tryptase, tetrameric (activated by enterokinase cleavage) (from UniProt Q15661 31-275) (enzyme)

B1: CD20 (natural protein)
chain: TQSFFMRESKTLGAVQIMNGLFHIALGGLLMIPAGIYAPICVTVWYPLWGGIMYIISGSLLAATEKNSRKCLVKGKMIMNSLSLFAAISGMILSIMDILNIKISHFLKMESLNFIRAHTPYINIYNCEPANPSEKNSPSTQYCYSIQSLFLGILSVMLIFAFFQELVIAGIVENEWKRTCSRPKSNIVLLSAEEKKEQTIEIKEEVVGLTETSSQPKNEEDIEIIPIQEEEEEETETNFPEPPQDQESSPIENDSSP
stoichiometry N (cryo-EM structure): 2
